Results as given in US20180299467A1.

Legend:
[1] = target: F-actin; experiment: co-sedimentation with F-actin in the presence of TM, densitometry of pellet (FIG. 3C)
[2] = test system: F-actin
[3] = test system: citrullinated F-actin (treated with PAD2)

percent of TnI present in the pellet [1]	Substance	actomyosin HMM-ATPase activity [2]	increase in actomyosin HMM-ATPase rate against unmodified F-actin [3]	decrease in actomyosin HMM-ATPase activity against non-citrullinated HMM [2]	actomyosin HMM-ATPase activity (rate of ATP hydrolysis) [3]
> 95%	citrullinated cardiac troponin I (TnI treated with PAD2)				
> 95%	cardiac troponin I (TnI), non-citrullinated				
	heavy meromyosin (HMM), non-citrullinated	0.32±0.01 nmol Pi	increased actomyosin HMM-ATPase rate by 55% compared to the unmodified F-actin		
	citrullinated heavy meromyosin (HMM treated with PAD2)	0.22±0.002 nmol Pi		corresponding to 30% decrease in the enzyme activity	0.368±0.005 nmol Pi
